The text below walks through data of the DeepSol protein solubility set.

The data set in a line: soluble on expression in E. coli; label from the status in PepcDB or PDB records.
For the sequence “EGPLHWESTLTYTSYRDRWKERDPKVILAPYVKENDPVSAIYTLIPDGIKQAGEDTPAMPDLLPGQRKYKDVNGLDEEGNLTGKPDGKIDQADVVYLGTRAPKFTMGFSNDFRYKGFDLNIYLYASVGGYSYPYTQVEHGVYGGNGIQRLKDNNNFLADIKNRWTSDNMSSAMPSGEVNSYDSYGAPNWEKNTYLRLKSVTLGYDLSRLFKADKLKVRFYFSGQNLLTFTGYKGLDPEVENDRASYPQQKTFSFGLDVKF”, the “soluble on expression in E. coli” value is listed as “not soluble”.
The same measure for “MDESMRHDIALFRYGLIAPLVNGQVEPKAYLNEVGGRVHSIPHQGDKPIAAKTILDWCARYKKGGFDALKPKRRSDRGRSRRLSPDDEDHILALRKEHPTMPVTLFYEQLTKQGDIPTTLSYFTIYRLLKKHNLVGKEILPMPERKRFAYDQINELWQGDLSHGPTIRVHGKAQKTFLIAYIDDCSRLVPYAQFFPSEKFDGLRIVTKEAVLRCGKPKRIYSDNGKIYRSEVLQYACAEMGITLIHTQPYDPQSKGKIERFFRTVQTRFYPLLELNPPKSLDELNERFWKWLEEEYHRKPHASLDGKTPHEVFQSQVERVVWIEDIDWLDAIFLKREHRKVKADGTITLNKQLYEVPPRFIGQSIELRYDERGVYVYEDGKRVAEAIRVRLEDNAYVKRHRSPFAAVSAKEGEQDV”: “not soluble”; for “MGSDKIHHHHHHMIHWLKVPNNPELAKYIACYWFLEKLPNAEGHNDYPKLNPDPASHLILALPQQNFRYKSDNGVTQMDGCHWLHPHGKTYELDHAKAVACIGIKFHVGALYSLPTFMDLQEQTPQAVVDTVEAISFENINFAQSNFDDHKLSDNNQLNEHDLVILARNSPDDCAEMLDKLCLPWLLKNHEDNHSELTRKVLPLLAKAAINSLGDTLFCSQRTLERSFLKVSGVTLKQCQSMNRLEAILEFLYQREQSDIDWVDIAYQFGFSDQPHLIRYLKKQLGLTPQDYALQRGFTIDVYGGVDSL”: “not soluble”.
With “MSLAAHYDGLEKRTGAPYYGKKAEKVCNCAECLVFRRDVETGRLRLSNAYFCKVRLCSMCAWRRSLKIASHNKLIVEEANREYKPSWIFLTLTVRNVDGDDLKQTITDMMKAWNRLFGYKVVKTSVLGYFRALEITKNHEQNTYHPHFHVLIPVKRSYFTGKRYIKQAEWTSLWKRAMKLDYTPIVHVQRVKGKKGIDAEGIEKEVRKEMEEQKAILEISKYPVKDTDVIRGNEVTEENLDTVYYLDDALNARRLIGYGGILKEIHKELNLTDAEDGDLVRIEEDDDAVANETFEVMARWHVGIKNYIIQEGHHHHHH”, the “soluble on expression in E. coli” value is reported as “soluble”.
The result for “MTKKVGVGQAHSKIILIGEHAVVYGYPAISLPLLEVEVTCKVVSAESPWRLYEEDTLSMAVYASLEYLDITEACVRCEIDSAIPEKRGMGSSAAISIAAIRAVFDYYQADLPHDVLEILVNRAEMIAHMNPSGLDAKTCLSDQPIRFIKNVGFTELEMDLSAYLVIADTGVYGHTREAIQVVQNKGKDALPFLHALGELTQQAEVAISQKYAEGLGLIFSQAHLHLKEIGVSSPEADFLVETALSYGALGAKMSGGGLGGCIIALVTNLTHAQELAERLEEKGAVQTWIESL” reads “not soluble”; that for “MGHHHHHHSHMTIEEFAAGPAQSGILVDREVVSLFLHFTVNPKPRVEFIDRPRCCLRGKECSINRFQQVESRWGYSGTSDRIRFSVNKRIFVVGFGLYGSIHGPTDYQVNIQIIHTDSNTVLGQNDTGFSCDGSASTFRVMFKEPVEVLPNVNYTACATLKGPDSHYGTKGLRKVTHESPTTGAKTCFTFCYAAGNNNGTSVEDGQIPEVIFYT”, “not soluble”; that for “MIRVASLIKAMSDTQLQIAQGASPLTGLPGNSAIEQEIKRRLNSGNAFGMIYADLNQFKAFNDTYGFQYGDSIIKLLGKILMQDSLKADDLAFVGHVGGDDFIILTTQNVTKTLGETILLSFQEQLSAMQGAQDLSLALAGLIIYPHTAWTPATLSERIAAVKREAKKAHCNYFLLRELEHHHHHH”, “not soluble”.
On to “MGSDKIHHHHHHMSAPDSAPGTERGHERTHFAVVGDSQDPAQATAPRAPAESITLIGIGTDGFEGLGLKAQQALQRASVVIGSWRQLNLVPDAIKAERRPWPGNTKHPDLDALFKEFLGRHVAVLASGDPLFYGVGTAMVHVLGMDRLTVIPGPSSASLACARLGWTVNRTRVVYLGQEPIETLIPIIESGAQFLVLGKDEFSTAQVATLLNELGLGETPLTVLSDLGSTDEEITQGTASHPPAAVSVLNVIAVGARTAMPKPHFEGDVSNEDLRALTVAALEPTQGQMLWTFGDIGAALACDWLRAAGNKAHAISFASMVEQSQRNARKLGVSTLSVKETLSPKTLKDIRYVQGPESASPHAIFMNKGLGIDLVPETAWMMLRPGGKLIAQASTEDNIAKLHTLQEQHGGIIKHIRIDDTDVHQWRVTKPVTPEAVN”, for which the “soluble on expression in E. coli” value is given as “not soluble”.
